Test results reported in US20150344570A1 (published 2015).

T1: FcγRIIa H (human FcγRIIa, allotype H131, extracellular domain with C-terminal His tag) (human, UniProt P12318 34-217)
T1 construct: extracellular domain; Soluble extracellular domain expressed in FreeStyle293 cells; used as analyte in Biacore; also called FcgRIIa H; FcγRIIa type H; not shown: His tag attached to the C terminus
T1 sequence (looked up): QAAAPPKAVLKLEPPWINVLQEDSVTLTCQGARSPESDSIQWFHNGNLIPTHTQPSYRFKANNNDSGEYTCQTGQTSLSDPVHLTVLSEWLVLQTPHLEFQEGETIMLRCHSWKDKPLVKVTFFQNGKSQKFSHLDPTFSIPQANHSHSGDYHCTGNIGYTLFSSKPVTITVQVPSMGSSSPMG

B1: GpH7-A5/GpH7-B3 variant T335_02A/GpL16-k0 (heterodimerized antibody, He Ab) (antibody, human IgG1, kappa)
heavy 1: not shown
heavy 2: not shown
light: DIVMTQSPLSLPVTPGEPASISCQASESLVHSNRNTYLHWYLQKPGQSPQLLIYKVSNRFSGVPDRFSGSGSGTDFTLKISRVEAEDVGVYYCSQNTHVPPTFGQGTKVEIERTVAAPSVFIFPPSDEQLKSGTASVVCLLNNFYPREAKVQWKVDNALQSGNSQESVTEQDSKDSTYSLSSTLTLSKADYEKHKVYACEVTHQGLSSPVTKSFNRGEC
notes: Anti-glypican-3 IgG1 heterodimer (D356K/H435R chain GpH7-A5 with K439E chain GpH7-B3 variant); the alteration stands in one H chain only; EU numbering; also called T335_02A He Ab; T335A in one H chain
B2: GpH7-B3 variant T335_02A/GpL16-k0 (homodimerized antibody, Ho Ab) (antibody, human IgG1, kappa)
heavy: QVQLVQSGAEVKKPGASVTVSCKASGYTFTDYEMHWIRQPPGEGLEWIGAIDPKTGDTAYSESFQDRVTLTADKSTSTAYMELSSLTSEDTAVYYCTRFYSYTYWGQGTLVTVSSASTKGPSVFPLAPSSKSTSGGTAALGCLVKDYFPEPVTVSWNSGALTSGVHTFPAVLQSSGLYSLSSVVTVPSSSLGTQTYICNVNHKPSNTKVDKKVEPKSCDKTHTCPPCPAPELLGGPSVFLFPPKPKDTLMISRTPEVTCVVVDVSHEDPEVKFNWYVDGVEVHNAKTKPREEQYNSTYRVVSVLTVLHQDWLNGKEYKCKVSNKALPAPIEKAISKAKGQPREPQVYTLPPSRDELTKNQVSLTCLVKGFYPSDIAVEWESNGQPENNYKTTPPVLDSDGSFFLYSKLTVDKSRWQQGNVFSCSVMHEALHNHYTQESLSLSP
light: B1 light
notes: Anti-glypican-3 IgG1 (G1d with K439E); the alteration stands in both H chains; also called T335_02A Ho Ab; T335A in both H chains
B3: GpH7-B3 variant Y300_07I/GpL16-k0 (homodimerized antibody, Ho Ab) (antibody, human IgG1, kappa)
heavy: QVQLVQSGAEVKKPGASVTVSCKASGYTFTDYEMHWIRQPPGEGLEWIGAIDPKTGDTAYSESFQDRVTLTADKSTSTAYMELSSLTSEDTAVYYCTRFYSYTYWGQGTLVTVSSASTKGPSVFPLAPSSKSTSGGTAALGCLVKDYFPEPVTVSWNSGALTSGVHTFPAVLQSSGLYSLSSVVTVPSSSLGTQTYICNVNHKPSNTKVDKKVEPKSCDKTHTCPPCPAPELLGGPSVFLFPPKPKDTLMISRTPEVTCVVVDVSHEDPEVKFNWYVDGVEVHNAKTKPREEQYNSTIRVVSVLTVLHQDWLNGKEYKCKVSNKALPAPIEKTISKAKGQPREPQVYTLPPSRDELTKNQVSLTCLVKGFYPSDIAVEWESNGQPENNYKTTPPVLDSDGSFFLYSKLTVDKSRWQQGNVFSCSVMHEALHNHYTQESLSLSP
light: B1 light
notes: Anti-glypican-3 IgG1 (G1d with K439E); the alteration stands in both H chains; EU numbering; also called Y300_07I Ho Ab; Y300I in both H chains
B4: GpH7-A5/GpH7-B3 variant Y300_06M/GpL16-k0 (heterodimerized antibody, He Ab) (antibody, human IgG1, kappa)
heavy 1: not shown
heavy 2: not shown
light: B1 light
notes: Anti-glypican-3 IgG1 heterodimer; the alteration stands in one H chain only; EU numbering; also called Y300_06M He Ab; Y300M in one H chain
B5: GpH7-A5/GpH7-B3 variant Y300_08L/GpL16-k0 (heterodimerized antibody, He Ab) (antibody, human IgG1, kappa)
heavy 1: not shown
heavy 2: not shown
light: B1 light
notes: Anti-glypican-3 IgG1 heterodimer; the alteration stands in one H chain only; EU numbering; also called Y300_08L He Ab; Y300L in one H chain
B6: GpH7-B3 variant T335_08L/GpL16-k0 (homodimerized antibody, Ho Ab) (antibody, human IgG1, kappa)
heavy: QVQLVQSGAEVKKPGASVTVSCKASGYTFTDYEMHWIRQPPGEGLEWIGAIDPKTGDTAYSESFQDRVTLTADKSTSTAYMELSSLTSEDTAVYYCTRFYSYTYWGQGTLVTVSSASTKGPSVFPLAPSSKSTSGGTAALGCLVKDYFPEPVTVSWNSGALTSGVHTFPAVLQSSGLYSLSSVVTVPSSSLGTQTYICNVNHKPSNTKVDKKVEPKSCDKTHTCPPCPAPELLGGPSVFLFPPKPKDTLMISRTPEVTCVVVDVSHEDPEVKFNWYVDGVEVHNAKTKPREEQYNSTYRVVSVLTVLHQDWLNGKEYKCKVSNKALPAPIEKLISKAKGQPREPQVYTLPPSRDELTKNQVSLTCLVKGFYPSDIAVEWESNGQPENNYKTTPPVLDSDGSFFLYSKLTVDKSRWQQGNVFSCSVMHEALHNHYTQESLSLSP
light: B1 light
notes: Anti-glypican-3 IgG1 (G1d with K439E); the alteration stands in both H chains; EU numbering; also called T335_08L Ho Ab; T335L in both H chains
B7: GpH7-A5/GpH7-B3 variant T335_08L/GpL16-k0 (heterodimerized antibody, He Ab) (antibody, human IgG1, kappa)
heavy 1: not shown
heavy 2: not shown
light: B1 light
notes: Anti-glypican-3 IgG1 heterodimer; the alteration stands in one H chain only; EU numbering; also called T335_08L He Ab; T335L in one H chain
B8: GpH7-B3 variant T335_06M/GpL16-k0 (homodimerized antibody, Ho Ab) (antibody, human IgG1, kappa)
heavy: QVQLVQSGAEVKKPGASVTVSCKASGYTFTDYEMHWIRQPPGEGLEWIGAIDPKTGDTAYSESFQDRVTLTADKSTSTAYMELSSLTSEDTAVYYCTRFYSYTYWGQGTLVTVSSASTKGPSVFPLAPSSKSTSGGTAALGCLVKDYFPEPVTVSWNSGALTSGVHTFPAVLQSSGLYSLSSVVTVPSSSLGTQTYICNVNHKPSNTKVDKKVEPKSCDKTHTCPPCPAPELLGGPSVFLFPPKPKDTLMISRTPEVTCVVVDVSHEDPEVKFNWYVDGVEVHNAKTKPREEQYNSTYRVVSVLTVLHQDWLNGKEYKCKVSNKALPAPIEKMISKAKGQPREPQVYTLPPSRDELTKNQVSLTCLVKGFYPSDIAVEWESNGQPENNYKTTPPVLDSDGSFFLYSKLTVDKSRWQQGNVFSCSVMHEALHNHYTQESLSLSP
light: B1 light
notes: Anti-glypican-3 IgG1 (G1d with K439E); the alteration stands in both H chains; EU numbering; also called T335_06M Ho Ab; T335M in both H chains
B9: GpH7-B3 variant Y300_06M/GpL16-k0 (homodimerized antibody, Ho Ab) (antibody, human IgG1, kappa)
heavy: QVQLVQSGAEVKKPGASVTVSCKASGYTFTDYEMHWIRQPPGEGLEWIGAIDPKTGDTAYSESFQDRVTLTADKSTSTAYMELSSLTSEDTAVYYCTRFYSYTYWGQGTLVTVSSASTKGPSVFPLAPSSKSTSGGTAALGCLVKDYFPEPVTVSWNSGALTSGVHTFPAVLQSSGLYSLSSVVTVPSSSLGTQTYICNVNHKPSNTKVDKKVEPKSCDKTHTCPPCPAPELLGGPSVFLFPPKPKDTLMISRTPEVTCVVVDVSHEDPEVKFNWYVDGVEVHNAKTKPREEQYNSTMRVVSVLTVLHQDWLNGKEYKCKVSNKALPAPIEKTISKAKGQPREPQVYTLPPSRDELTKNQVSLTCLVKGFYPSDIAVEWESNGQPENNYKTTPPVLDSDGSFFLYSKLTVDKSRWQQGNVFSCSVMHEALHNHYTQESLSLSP
light: B1 light
notes: Anti-glypican-3 IgG1 (G1d with K439E); the alteration stands in both H chains; EU numbering; also called Y300_06M Ho Ab; Y300M in both H chains
B10: GpH7-A5/GpH7-B3 variant T335_09D/GpL16-k0 (heterodimerized antibody, He Ab) (antibody, human IgG1, kappa)
heavy 1: not shown
heavy 2: not shown
light: B1 light
notes: Anti-glypican-3 IgG1 heterodimer; the alteration stands in one H chain only; EU numbering; also called T335_09D He Ab; T335D in one H chain
B11: GpH7-B3 variant Y300_08L/GpL16-k0 (homodimerized antibody, Ho Ab) (antibody, human IgG1, kappa)
heavy: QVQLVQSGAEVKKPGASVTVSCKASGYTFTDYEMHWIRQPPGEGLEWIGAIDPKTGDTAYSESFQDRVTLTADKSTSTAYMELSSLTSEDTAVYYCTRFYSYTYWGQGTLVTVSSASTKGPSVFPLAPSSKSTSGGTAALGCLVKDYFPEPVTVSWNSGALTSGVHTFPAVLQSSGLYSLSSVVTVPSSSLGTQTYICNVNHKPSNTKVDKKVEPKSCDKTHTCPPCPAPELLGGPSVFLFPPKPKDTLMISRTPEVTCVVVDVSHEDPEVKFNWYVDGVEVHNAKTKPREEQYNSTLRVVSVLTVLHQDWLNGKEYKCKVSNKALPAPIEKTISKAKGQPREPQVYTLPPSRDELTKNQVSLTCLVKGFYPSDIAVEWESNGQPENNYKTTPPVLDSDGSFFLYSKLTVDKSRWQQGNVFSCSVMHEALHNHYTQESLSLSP
light: B1 light
notes: Anti-glypican-3 IgG1 (G1d with K439E); the alteration stands in both H chains; EU numbering; also called Y300_08L Ho Ab; Y300L in both H chains
B12: GpH7-B3 variant T335_09D/GpL16-k0 (homodimerized antibody, Ho Ab) (antibody, human IgG1, kappa)
heavy: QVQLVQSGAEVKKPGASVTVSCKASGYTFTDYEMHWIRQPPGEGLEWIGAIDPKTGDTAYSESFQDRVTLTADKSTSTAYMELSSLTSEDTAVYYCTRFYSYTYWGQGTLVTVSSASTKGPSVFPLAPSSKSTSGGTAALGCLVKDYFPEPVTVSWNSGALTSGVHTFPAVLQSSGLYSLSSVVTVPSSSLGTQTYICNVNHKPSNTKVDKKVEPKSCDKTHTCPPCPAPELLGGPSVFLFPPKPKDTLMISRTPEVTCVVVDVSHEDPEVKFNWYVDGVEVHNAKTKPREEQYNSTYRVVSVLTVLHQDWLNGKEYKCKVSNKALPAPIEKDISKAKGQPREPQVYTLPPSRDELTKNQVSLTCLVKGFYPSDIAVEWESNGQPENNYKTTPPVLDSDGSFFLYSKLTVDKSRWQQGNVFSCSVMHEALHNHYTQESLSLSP
light: B1 light
notes: Anti-glypican-3 IgG1 (G1d with K439E); the alteration stands in both H chains; EU numbering; also called T335_09D Ho Ab; T335D in both H chains
B13: GpH7-A5/GpH7-B3 variant T335_05P/GpL16-k0 (heterodimerized antibody, He Ab) (antibody, human IgG1, kappa)
heavy 1: not shown
heavy 2: not shown
light: B1 light
notes: Anti-glypican-3 IgG1 heterodimer; the alteration stands in one H chain only; EU numbering; also called T335_05P He Ab; T335P in one H chain
B14: GpH7-A5/GpH7-B3 variant T335_06M/GpL16-k0 (heterodimerized antibody, He Ab) (antibody, human IgG1, kappa)
heavy 1: not shown
heavy 2: not shown
light: B1 light
notes: Anti-glypican-3 IgG1 heterodimer; the alteration stands in one H chain only; EU numbering; also called T335_06M He Ab; T335M in one H chain
B15: GpH7-B3 variant T335_04F/GpL16-k0 (homodimerized antibody, Ho Ab) (antibody, human IgG1, kappa)
heavy: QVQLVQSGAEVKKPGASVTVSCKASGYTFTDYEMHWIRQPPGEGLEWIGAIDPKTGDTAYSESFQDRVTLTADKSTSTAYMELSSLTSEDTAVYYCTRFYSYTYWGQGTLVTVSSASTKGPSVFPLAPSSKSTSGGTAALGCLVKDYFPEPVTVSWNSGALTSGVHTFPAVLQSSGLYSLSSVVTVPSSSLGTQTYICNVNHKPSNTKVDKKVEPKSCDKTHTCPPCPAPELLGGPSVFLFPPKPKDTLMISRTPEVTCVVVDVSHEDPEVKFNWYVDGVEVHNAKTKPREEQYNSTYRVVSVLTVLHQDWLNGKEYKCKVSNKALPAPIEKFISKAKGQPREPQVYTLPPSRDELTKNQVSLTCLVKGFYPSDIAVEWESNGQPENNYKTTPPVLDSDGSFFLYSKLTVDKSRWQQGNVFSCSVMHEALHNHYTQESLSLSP
light: B1 light
notes: Anti-glypican-3 IgG1 (G1d with K439E); the alteration stands in both H chains; EU numbering; also called T335_04F Ho Ab; T335F in both H chains
B16: GpH7-A5/GpH7-B3 variant Y300_07I/GpL16-k0 (heterodimerized antibody, He Ab) (antibody, human IgG1, kappa)
heavy 1: not shown
heavy 2: not shown
light: B1 light
notes: Anti-glypican-3 IgG1 heterodimer; the alteration stands in one H chain only; EU numbering; also called Y300_07I He Ab; Y300I in one H chain
B17: GpH7-A5/GpH7-B3 variant T335_04F/GpL16-k0 (heterodimerized antibody, He Ab) (antibody, human IgG1, kappa)
heavy 1: not shown
heavy 2: not shown
light: B1 light
notes: Anti-glypican-3 IgG1 heterodimer; the alteration stands in one H chain only; EU numbering; also called T335_04F He Ab; T335F in one H chain
B18: GpH7-B3 variant T335_05P/GpL16-k0 (homodimerized antibody, Ho Ab) (antibody, human IgG1, kappa)
heavy: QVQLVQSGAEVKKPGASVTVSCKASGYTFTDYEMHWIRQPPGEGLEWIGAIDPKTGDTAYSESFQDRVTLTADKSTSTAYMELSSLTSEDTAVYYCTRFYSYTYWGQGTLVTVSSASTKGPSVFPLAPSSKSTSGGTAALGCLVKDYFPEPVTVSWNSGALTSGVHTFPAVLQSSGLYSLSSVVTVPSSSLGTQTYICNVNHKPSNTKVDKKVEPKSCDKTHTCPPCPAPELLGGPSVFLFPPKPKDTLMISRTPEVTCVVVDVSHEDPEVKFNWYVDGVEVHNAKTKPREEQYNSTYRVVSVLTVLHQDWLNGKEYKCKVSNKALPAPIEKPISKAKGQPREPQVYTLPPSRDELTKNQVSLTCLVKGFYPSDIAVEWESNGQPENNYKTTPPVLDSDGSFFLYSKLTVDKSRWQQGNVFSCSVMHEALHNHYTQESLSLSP
light: B1 light
notes: Anti-glypican-3 IgG1 (G1d with K439E); the alteration stands in both H chains; EU numbering; also called T335_05P Ho Ab; T335P in both H chains

The binders below were run against T1, FcγRIIa H (human FcγRIIa, allotype …) (assay: SPR (Biacore T100), antibody captured on antigen-peptide chip, FcγRIIa H as analyte; relative binding).
Procedure: Analysis of interaction between objective antibody and the FcγR was carried out using Biacore T100 (GE Healthcare). HBS-EP+ (GE Healthcare) was used as the running buffer, and the measurement temperature was set to 25° C. Chips produced by immobilizing the antigen peptide by the amine coupling method to a Series S Sencor Chip CM5 (GE Healthcare), or alternatively, chips produced by allowing preliminarily biotinylated antigen peptides to interact with and immobilize onto a Series S Sensor Chip SA (certified) (GE Healthcare) were used. Antibodies of interest were captured onto an antigen peptide-immobilized chip, and allowed to interact to each FcγR diluted with running buffer. To regenerate and repeatedly use the chip, the antibodies captured on the chip were washed off by reacting 10 mM glycine-HCl, pH 1.5.

He/Con_2aH | Ho/Con_2aH | Binder
101 relative binding activity (control heterodimerized antibody GpH7-A5/GpH7-B3/GpL16-k0 = 100) |  | B1
 | 103 relative binding activity (control homodimerized antibody GpH7-B3/GpL16-k0 = 100) | B2
 | 122 relative binding activity (control homodimerized antibody GpH7-B3/GpL16-k0 = 100) | B3
105 relative binding activity (control heterodimerized antibody GpH7-A5/GpH7-B3/GpL16-k0 = 100) |  | B4
108 relative binding activity (control heterodimerized antibody GpH7-A5/GpH7-B3/GpL16-k0 = 100) |  | B5
 | 106 relative binding activity (control homodimerized antibody GpH7-B3/GpL16-k0 = 100) | B6
106 relative binding activity (control heterodimerized antibody GpH7-A5/GpH7-B3/GpL16-k0 = 100) |  | B7
 | 106 relative binding activity (control homodimerized antibody GpH7-B3/GpL16-k0 = 100) | B8
 | 106 relative binding activity (control homodimerized antibody GpH7-B3/GpL16-k0 = 100) | B9
107 relative binding activity (control heterodimerized antibody GpH7-A5/GpH7-B3/GpL16-k0 = 100) |  | B10
 | 115 relative binding activity (control homodimerized antibody GpH7-B3/GpL16-k0 = 100) | B11
 | 110 relative binding activity (control homodimerized antibody GpH7-B3/GpL16-k0 = 100) | B12
108 relative binding activity (control heterodimerized antibody GpH7-A5/GpH7-B3/GpL16-k0 = 100) |  | B13
103 relative binding activity (control heterodimerized antibody GpH7-A5/GpH7-B3/GpL16-k0 = 100) |  | B14
 | 104 relative binding activity (control homodimerized antibody GpH7-B3/GpL16-k0 = 100) | B15
108 relative binding activity (control heterodimerized antibody GpH7-A5/GpH7-B3/GpL16-k0 = 100) |  | B16
103 relative binding activity (control heterodimerized antibody GpH7-A5/GpH7-B3/GpL16-k0 = 100) |  | B17
 | 115 relative binding activity (control homodimerized antibody GpH7-B3/GpL16-k0 = 100) | B18
